This note sets out measurements from patent publication US20150140120, “STABILIZED APTAMERS TO PLATELET DERIVED GROWTH FACTOR AND THEIR USE AS ONCOLOGY THERAPEUTICS” (ARCHEMIX LLC, published 2015).

Substitutions are numbered along the chain they refer to.

Data set [1] deals with T1, PDGF-BB (human, UniProt P01127 P01127:82-190). Put plainly: filter; dot blot. As to conditions: tags: PeproTech (ERK assay: R&D Systems); chain copies: 2 inferred. The text has this: (§1) Protein-associated radio-label is captured on the nitrocellulose membrane while the balance of the radio-label is captured on the nylon membrane. The radio-label data is collected on a phosphorimaging plate.

Data set [2] concerns the target VEGF (UniProt P15692-4 P15692-4:27-191). The data set is described as follows: filter; dot blot. As to conditions: chain copies: 2.
Text: as §1

Data set [3] concerns the target T2, PDGF-AA (rat, UniProt P28576 P28576:86-204). Put plainly: filter; 1x SHMCK, 0.1 mg/mL tRNA, RT. As to conditions: chain copies: 2 inferred; label: 5'-32P. As for the experimental part:
(§2) Dot blot binding assays were performed throughout the selection to monitor the protein binding affinity of the pool. Trace ³²P-labeled RNA was combined with PDGF-AA and incubated at room temperature for 30 min in 1× SHMCK plus 0.1 mg/ml tRNA for a final volume of 20 μl. The reaction was added to a dot blot apparatus (Schleicher and Schuell Minifold-1 Dot Blot, Acrylic), assembled (from top to bottom) with nitrocellulose, nylon, and gel blot membranes. RNA that is bound to protein is captured on the nitrocellulose filter, whereas the non-protein bound RNA is captured on the nylon filter.

Data set [4] deals with T3, PDGF-AA short form (human, UniProt P04085-2 P04085-2:87-196). The data set is described as follows: filter; 1x SHMCK (Mg, Ca), 0.1 mg/mL tRNA, RT; 2-3 fold lower without tRNA. As to conditions: tags: Roche Biomedical (short form); chain copies: 2 inferred; label: 5'-32P. How it is done: as §2
The target of data set [5] is T3, PDGF-AA short form. Put plainly: filter; 1x SHMCK, 0.1 mg/mL tRNA, RT. As to conditions: tags: Roche Biomedical (short form); chain copies: 2 inferred; label: 5'-32P. How it is done:
as §2

The target in data set [6] is T1, PDGF-BB. Put plainly: filter; recognises VEGF but not PDGF. Conditions: tags: PeproTech (ERK assay: R&D Systems); chain copies: 2 inferred.
The target in data set [7] is T2, PDGF-AA. The data set is described as follows: filter; N.B., no significant binding. As to conditions: chain copies: 2 inferred; label: 5'-32P. How it is done:
as §2

Data set [8] addresses T3, PDGF-AA short form. Put plainly: filter; N.B., no significant binding. Conditions: tags: Roche Biomedical (short form); chain copies: 2 inferred; label: 5'-32P. How it is done:
as §2

In data set [9] the target is T1, PDGF-BB. The data set is described as follows: filter; all-DNA ARC126 used in the chimera; dot blot. Conditions: tags: PeproTech (ERK assay: R&D Systems); chain copies: 2 inferred.
Text: as §1

T1 sequence (P01127 82-190, one chain of several): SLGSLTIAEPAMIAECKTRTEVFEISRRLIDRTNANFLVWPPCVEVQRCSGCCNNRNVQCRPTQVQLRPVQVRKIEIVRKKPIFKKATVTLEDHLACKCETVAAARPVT
Chain of VEGF (P15692 other isoform, or with tags, fused parts or gaps): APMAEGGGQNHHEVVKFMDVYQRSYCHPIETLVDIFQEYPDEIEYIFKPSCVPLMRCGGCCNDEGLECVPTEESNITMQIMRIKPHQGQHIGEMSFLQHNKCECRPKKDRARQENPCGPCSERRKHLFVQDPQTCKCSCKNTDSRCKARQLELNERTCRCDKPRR

B1: TK.131.012.B (mixed)
mixed: CAGGCTACGUGCAGUUUGAGAAGUCGCGCACGTAGAGCATCAGAAATGATCCTG
modifications: DNA (PDGF part) with 2'-OMe VEGF part (ARC245 lacking first mA-mU pair); 3' inverted dT
As usually defined, the Kd is the concentration at which binding is half-saturated. For B1, the Kd in data set [1] was roughly 10 nM; in [2], roughly 5 nM.

B2: TK.131.012.A (mixed)
mixed: CAGGCTACGAUGCAGUUUGAGAAGUCGCGCAUCGTAGAGCATCAGAAATGATCCTG
modifications: DNA (PDGF part) with 2'-OMe VEGF part (ARC245); 3' inverted dT
With B2, the equilibrium dissociation constant (Kd) in data set [1] and in data set [2] was roughly 10 nM each time.

B3: ARX33P1.D2 (ssRNA)
RNA: GGGAAAAGCGAAUCAUACACAAGACCGGGAACUCGGAUUCUUCGCAUGUGGAUGCGAUCAGUAUGCUCCGCCAGAGACCAACCGAGAA
modifications: 2'-F pyrimidines, 2'-OH purines
Turning to B3, the figures for the dissociation constant (Kd) in [3] and in [4] were 51.7 nM and 104 nM, respectively.

B4: ARX33P1.E10 (ssRNA)
RNA: B3 RNA with G29A
modifications: 2'-F pyrimidines, 2'-OH purines
With B4, the dissociation constant (Kd) in [3] was determined as 47.1 nM; in [5], 133 nM.

B5: ARX33P1.E5 (ssRNA)
RNA: B3 RNA with G44A, C55U
modifications: 2'-F pyrimidines, 2'-OH purines
For B5, the dissociation constant (Kd) was 57.4 nM in [3] and 117 nM in [5].

B6: ARC245 (XNA)
RNA: AUGCAGUUUGAGAAGUCGCGCAU
modifications: all 2'-OMe; 3' inverted dT
In data set [2], B6 returned a Kd of roughly 2 nM. In addition, the binding result in [6] is reported as “no binding”.

B7: ARX33P1.D1 (ssRNA)
RNA: GGGAAAAGCGAAUCAUACACAAGAUCGCCAGGAGCAAAGUCACGGAGGAGUGGGGGUACGAAUGCUCCGCCAGAGACCAACCGAGAA
modifications: 2'-F pyrimidines, 2'-OH purines
With B7, the binding result in data set [7] and in [8] was “no binding” each time.

B8: deoxyARC126 (ssDNA)
DNA: CAGGCTACGCGTAGAGCATCATGATCCTG
modifications: 3' inverted dT (SEQ ID NO: 8)
In [9], B8 gave an equilibrium dissociation constant (Kd) of roughly 0.1 nM.

B9: ARX33P1.E11 (ssRNA)
RNA: GGGAAAAGCGAAUCAUACACAAGAGAGUGGAGGAGGUAUGUAUGGUUUGUGCGUCUGGUGCGGUGCUCCGCCAGAGACCAACCGAGAA
modifications: 2'-F pyrimidines, 2'-OH purines
For B9, the binding result in data set [7] and in data set [8] was “no binding” throughout.
